This passage reports [3H]glycine uptake after CuP treatment (1 to 100 μM), transport activity remaining, maximally increased % dimer fraction (CuP 1 to 100 μM) and stoichiometry N results from article PMC9781295.

Experiment [1] addresses GlyT1b L288C, N-terminal FLAG-tagged (human).
The target is the same in experiment [2]. The experiment in a line: cross-linking; oxidative cross-linking on intact HEK293 cells with copper phenanthroline (CuP, 1-100 μM) for 15 min at 22 °C in HEPES buffered saline, quenched with 10 mM N-ethylmaleimide; lysates in non-reducing sample buffer, anti-FLAG immunoblot; also with ZnCl2, NMDGCl, Na+, glycine, bitopertin or LY2365109 present, or 100 mM DTT on the lysates. (In western blotting, separated proteins are transferred to a membrane and probed.)

Regarding “GlyT1b L288C, N-terminal FLAG-tagged (natural protein)”, the [3H]glycine uptake after CuP treatment (1 to 100 μM), transport activity remaining at the highest CuP concentration, % of control without CuP in experiment [1] was 54 % of control. For the same substance, in experiment [2], the maximally increased % dimer fraction (CuP 1 to 100 μM) was determined as 55.9% and the stoichiometry N worked out at 2.

A word on the stoichiometry N: it is the number of molecules, sites or subunits per partner or assembly.
